Experimental data: the supplement of paper PMC10126150
± gives the standard deviation of the averaged measurements.

System: ATP
Assay: switch fluorescence ratio, 500 uM ATP over buffer (Cy3 cluster intensity, sum of 5 cycles each) (fold (ratio)); higher = stronger signal-on switching upon ATP binding; sequences stand for … in TCGTCGGCAGCGTCAGATGTGTATAAGAGACAGTTTTTTTTTTTTTTTTTTTTTTTTT…TC
Conditions: aptamer strand: ATP DNA aptamer (quencher-CACCTGGGGGAGTATTGCGGAGGAAGG + anchor), 100 nM annealed; ATP concentration: 500 uM
Method in brief: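 For every switch-domain sequence, the fluorescence ratio is the mean of per-cluster values, each being summed target-cycle Cy3 intensity over summed buffer-cycle Cy3 intensity. Clusters outside 100-1000 RFU were excluded. On a modified Illumina MiSeq flow-cell, the Cy3-labelled switching-strand clusters were annealed to 100 nM quencher-labelled ATP aptamer, imaged in selection buffer and then after 15 min with 500 uM ATP at 22 °C. Five such cycles were run, with NaOH stripping and re-annealing between them.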
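Also: ATP exposure 15 min at 22 °C before imaging.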

Sequence | switch fluorescence ratio
TTTAAGGCGT | 1.03 ± 0.016
CTAGGTGTGT | 1.02 ± 0.051
GCCAATGGGC | 1 ± 0.051
AAAGGGCTCT | 0.9821 ± 0.0078
GGGGTGACGG | 1.004 ± 0.0055
ACTTAGGTTG | 1.04 ± 0.017
CATTTTCCGC | 1.81 ± 0.57
TTACAGTTGG | 1.03 ± 0.023
TACTGTACTC | 1.54 ± 0.035
TCGGATGGTT | 0.978 ± 0.024
CGTATATAGT | 1.01 ± 0.014
GCCGCCGTAA | 1.3 ± 0.079
GGGTTAGTAG | 1 ± 0.017
ATGACGCTGG | 1.03 ± 0.13
AATAGCCTTG | 1.02 ± 0.013
TGAATGTTTG | 1.01 ± 0.036
ATGGATGACT | 1.04 ± 0.018
AAGGTAAGAG | 0.999 ± 0.037
TCGGGGCTCT | 1.07 ± 0.12
ATTTAAGAGG | 1 ± 0.041
ATTCGGTCAT | 1 ± 0.015
GGGGCCGTCA | 0.987 ± 0.031
AATCGTGTAT | 0.983 ± 0.035
TGCAGCTGGT | 0.98 ± 0.021
AGACAGTTGG | 0.99 ± 0.025

Sequence | switch fluorescence ratio
AAAAGTACGC | 1.09 ± 0.11
GACAGTAGTC | 1.001 ± 0.0049
TTTTGTGAAA | 0.997 ± 0.036
TTTTACAAGG | 0.983 ± 0.031
CTTAGATTTG | 0.9655 ± 0.0076
AGGGCATTAG | 1 ± 0.1
TCATGTAGAA | 1.01 ± 0.02
AAGGATTAAT | 0.987 ± 0.016
CTGTTTTTTG | 0.976 ± 0.03
ATACCAGGGG | 1.08 ± 0.19
TATTGGTGCA | 0.967 ± 0.017
TGAAAAAGGG | 1.04 ± 0.027
CTTTTGTCGT | 1.01 ± 0.028
TTTTGCCATG | 1.04 ± 0.067
TAAGTTTTGC | 0.979 ± 0.038
TTTTAATTTT | 0.998 ± 0.029
TGGGGTTCTG | 0.9832 ± 0.0022
GTAAGGAGTA | 0.96199 ± 0.0002
TGCTGTACGG | 1.01 ± 0.046
TGATGGGTTA | 0.962 ± 0.029
GCTAATTGCA | 1.03 ± 0.057
AAGGGCGATT | 1.02 ± 0.055
TGGGCTTTTT | 0.982 ± 0.041
GAGTACCACT | 1.01 ± 0.078
AGTAGAATCG | 0.992 ± 0.033

Sequence | switch fluorescence ratio
GGCGCACGGG | 1.02 ± 0.026
GCGGTAATTT | 1 ± 0.024
TCGGAGAGGA | 0.986 ± 0.016
TGGGGTTAAA | 0.997 ± 0.016
TAAGTTAGTA | 0.9786 ± 0.0091
CGGATGAGGT | 0.987 ± 0.052
TCTTGATGGG | 0.9811 ± 0.008
TATTTATAGC | 1.02 ± 0.013
TATGTTGTGA | 0.9902 ± 0.0039
TCAGTTTTCC | 1.02 ± 0.018
AACGGGTACC | 1.09 ± 0.088
AGATTCCGGT | 0.976 ± 0.016
TGGTAGGGGA | 1.04 ± 0.03
AGCAAATATA | 1.058 ± 0.0057
GGCAGTAAGA | 1.03 ± 0.024
ATCGGCAGGG | 0.981 ± 0.052
TTAATCCCAG | 1.02 ± 0.021
GCTCGGTCGG | 1.02 ± 0.037
ATTAAAAATG | 1.02 ± 0.042
CCATCGTATG | 0.971 ± 0.015
TTTCAATTTG | 1.04 ± 0.049
TGTTATATAT | 0.993 ± 0.032
GGGTAGGGGC | 1.02 ± 0.026
TTAGGGTCT | 1.01 ± 0.022
CGGTGCTGCG | 1.065 ± 0.0039

Sequence | switch fluorescence ratio
GGCAATATGG | 1.229 ± 0.011
ATGTTCAACT | 0.998 ± 0.016
TACAAGGACG | 1.03 ± 0.098
CCAAACGATT | 1.02 ± 0.027
CGATGGTAAG | 0.972 ± 0.011
CAGGGTTAGG | 1.01 ± 0.026
AGCTTTGGGA | 0.995 ± 0.085
CGGGGGATGT | 0.999 ± 0.024
AGGGGACGAT | 0.9887 ± 0.0056
TCAAATAGCG | 1.031 ± 0.0032
TTTAGGGGCG | 1.03 ± 0.1
ACTTTTTTTA | 1.022 ± 0.01
TAGAGGCGTT | 0.986 ± 0.012
AGTAAAAAAG | 1.042 ± 0.0073
AAAAAATTAA | 1.04 ± 0.026
GGACAGGGGG | 0.9633 ± 0.0051
GGCTACCTTG | 1.047 ± 0.0038
GGAAAATTTA | 0.963 ± 0.059
AAAAGGACTT | 0.994 ± 0.002
TGGTTTATAC | 1.32 ± 0.43
CGTAGTTTTA | 1.044 ± 0.0041
CCAGGTAACT | 1.05 ± 0.018
GAGGTTCCCG | 0.984 ± 0.051
CTAACAATAA | 1.05 ± 0.081
TTATCTAGTT | 1 ± 0.054

Sequence | switch fluorescence ratio
ATAATTCGGG | 1 ± 0.049
ATGTTCTTCT | 0.982 ± 0.018
TTGTGGGTCG | 0.984 ± 0.031
AACTTTAGTG | 0.991 ± 0.013
CGGGGAATAT | 0.993 ± 0.017
TTTTTGCATG | 1.03 ± 0.047
TTTGCGG | 1.009 ± 0.0082
TGTAGGAGTG | 1.25 ± 0.36
CTAAGAGCGC | 1.08 ± 0.064
TAATTATTCT | 1.02 ± 0.014
GGTTAACTTA | 0.979 ± 0.042
TTGCACTGAC | 1.53 ± 0.21
AACGTGTTGT | 1.02 ± 0.077
ACGGTGCATG | 1.018 ± 0.006
TTGGAGGTTT | 1.17 ± 0.24
GGATGAAACT | 1.012 ± 0.0044
TAAGGAAAGA | 1.08 ± 0.12
GAACTGAGTC | 1.01 ± 0.046
AACTACGCTT | 1.48 ± 0.099
TGGACCAGTT | 1.008 ± 0.0033
TTTAACGTTG | 0.989 ± 0.04
TTTGAATCG | 1.01 ± 0.021
GCGAAGTGCG | 0.979 ± 0.015
TGCTCTTTTT | 1 ± 0.019
GAGCTGGGTG | 1.09 ± 0.043

Sequence | switch fluorescence ratio
ATAGGACGCA | 1.265 ± 0.0027
AAAGATCGTT | 0.9799 ± 0.0055
TTTTTGCGCG | 0.9974 ± 0.0065
TTCTGAGGGA | 1 ± 0.03
ATGTTTATCA | 1.01 ± 0.055
CTCGTTGAGG | 0.979 ± 0.032
CCTACGTTT | 1.06 ± 0.063
CAGTTGGGAC | 1 ± 0.054
AACAACTCTC | 1.06 ± 0.017
CGCGTCGCTG | 0.9811 ± 0.0012
TTATAGGTAT | 0.9803 ± 0.0054
CCTAAATTTT | 1.01 ± 0.024
ACTGAGACGA | 1.07 ± 0.044
TTTGCGGGTG | 1.6 ± 0.91
TAGGTGTTGC | 1 ± 0.023
TTGGTTTTGA | 0.988 ± 0.042
GGGCGAGTAT | 1.016 ± 0.0029
GTGGATGCAT | 1.01 ± 0.022
TTAGGATGTA | 1.005 ± 0.0095
AAAAGTAAAG | 0.987 ± 0.033
TGGGTTTAAT | 1.03 ± 0.018
ATTGGAGGCA | 1.03 ± 0.03
TTAGTTTTTC | 1.01 ± 0.032
GGGCCCGCGT | 0.98 ± 0.011
TTGCTGAGCT | 0.9984 ± 0.0076

Sequence | switch fluorescence ratio
GAGTTTGTTT | 0.99 ± 0.044
TATGATGGGT | 1.015 ± 0.01
TAAGCTTCAT | 1.04 ± 0.18
GATAATTGTA | 0.9822 ± 0.0033
GGCTCATAGT | 0.996 ± 0.017
AGGCCGTATT | 1 ± 0.029
GCAAGGGGTT | 1 ± 0.063
AAATTCGCTG | 1.01 ± 0.095
GTTTGGCATG | 1.003 ± 0.0051
TTCCACTTGA | 1.04 ± 0.047
CCATCATAGG | 1.0149 ± 0.00068
GTATGCTAAC | 1 ± 0.043
GAAAAAGCCC | 1.04 ± 0.031
AAACTAGAAG | 1.01 ± 0.019
CTTTGGTAGG | 0.992 ± 0.025
GCGCTTACTA | 1.31 ± 0.079
GCAGTTTTAG | 0.999 ± 0.027
ACTTTGTATT | 0.999 ± 0.013
TAAGATGGCT | 1.11 ± 0.092
GGGGCGAACG | 0.977 ± 0.04
TTTTTTGCCT | 1.01 ± 0.038
GTGTGCCGTG | 1.01 ± 0.05
GGTTTGAAAA | 1.01 ± 0.032
CCAGAGGAAC | 0.948 ± 0.019
CGGGAACTCG | 1.01 ± 0.04

Sequence | switch fluorescence ratio
AATGGCGTAT | 1.02 ± 0.029
GACATTCCCT | 1.07 ± 0.016
TAGGCGTGGT | 1.01 ± 0.017
TAGGTAAAGA | 0.98 ± 0.021
AGGGAACGGG | 1.01 ± 0.055
GCGGTTCCTG | 0.9829 ± 0.0076
TAAGGCTCGG | 0.994 ± 0.02
GATTAACGTG | 0.9917 ± 0.0044
CGGGATAATG | 0.994 ± 0.021
TAGGATGGAG | 0.97358 ± 0.00078
GGGGGATATA | 1.01 ± 0.021
TCGGGATCGG | 1 ± 0.015
GTTGCGTGCT | 0.969 ± 0.032
TCAGGATGGC | 1.13 ± 0.092
CCTAGGGGTT | 1.09 ± 0.064
AGGTACTAGG | 1.036 ± 0.0041
ACGGAGGGTG | 1.029 ± 0.0088
TTTAACTTTG | 1.011 ± 0.0084
TTCGGTTTTG | 0.993 ± 0.031
AATTAGGGGT | 1.01 ± 0.02
GTGTGGGGGT | 0.98 ± 0.019
TGGTCGGGGC | 0.974 ± 0.025
TTTAGTTTTG | 1.017 ± 0.005
TTCGTTCCGT | 1.03 ± 0.019
AGGGATAAAG | 1.01 ± 0.023
